2 proteins from article PMC10448171, “Photocycle alteration and increased enzymatic activity in genetically modified photoactivated adenylate cyclase OaPAC” (The Journal of Biological Chemistry, 2023) can be followed below.

Positions count from the first letter of the chain named. Names may count otherwise.

Substrate in this data set: Nc1ncnc2c1ncn2[C@@H]1O[C@H](COP(=O)(O)OP(=O)(O)OP(=O)(O)O)[C@@H](O)[C@H]1O
The data set can be described thus: EnzChek pyrophosphate coupled assay, A360, Michaelis-Menten fit. Type of data set: biochemical, Oxynema acuminatum. The conditions noted are these: continuous illumination; 0-500 μM ATP; 1 μM enzyme. From the text: EnzChek pyrophosphate coupled assay, A360, Michaelis-Menten fit on OaPAC

B1: OaPAC (Oxynema acuminatum PCC 6304; D67N) (protein)
chain: MKRLTYISKFSRPLSGDEIEAIGRISSQKNQQANVTGVLLCLDGIFFQILEGEAEKIDRIYERILANERHTDILCLKSEVEVQERMFPDWSMQTINLDENTDFLIRPIKVLLQTLTESHRILEKYTQPSIFKIISQGTNPLNIRPKAVEKIVFFSDIVSFSTFAEKLPVEEVVSVVNSYFSVCTAIITRQGGEVTKFIGDCVMAYFDGDCADQAIQASLDILMELEILRNSAPEGSPLRVLYSGIGLAKGKVIEGNIGSELKRDYTILGDAVNVAARLEALTRQLSQALVFSSEVKNSATKSWNFIWLTDSELKGKSESIDIYSIDNEMTRKSSGGLEIARNIGHYLERVGDRQPSQIFGVKSLPL
notes: full-length, 366 residues, homodimer; N-terminal BLUF domain and C-terminal class III AC domain; pCold-I (Ni-NTA purified), E. coli BL21(DE3); Superdex 200
As for B1, the Km turned out to be 41 ± 5 µM, the maximum rate (Vmax) turned out to be 0.100 ± 0.002 mM/min and the turnover number (kcat) is 0.8342 s⁻¹.

B2: OaPAC (Oxynema acuminatum PCC 6304) (protein)
chain: B1 chain with N67D
notes: as for B1
As for B2, the Michaelis-Menten constant (Km) was 31 ± 1 µM, the Vmax is 0.064 ± 0.007 mM/min and the kcat amounted to 0.537 s⁻¹.
